Laboratory results taken from patent publication US20180155451A1 (published 2018).

T1: FcγRIIb (human, UniProt P31994 43-217)
T1 construct: extracellular domain; also called 2b; FcgRIIb
T1 sequence (looked up): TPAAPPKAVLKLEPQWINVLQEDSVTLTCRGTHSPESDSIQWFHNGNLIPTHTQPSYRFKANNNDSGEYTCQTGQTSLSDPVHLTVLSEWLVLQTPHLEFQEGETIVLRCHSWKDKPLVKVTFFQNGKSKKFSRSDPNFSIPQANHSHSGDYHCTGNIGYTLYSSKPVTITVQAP


target: T1, FcγRIIb; experiment: SPR (Biacore), binding relative to GpH7-B3/GpL16-k0 = 100
Procedure: Analysis of interaction between objective antibody and the FcγR was carried out using Biacore T100 (GE Healthcare). HBS-EP+ (GE Healthcare) was used as the running buffer, and the measurement temperature was set to 25° C. Chips produced by immobilizing the antigen peptide by the amine coupling method to a Series S Sencor Chip CM5 (GE Healthcare), or alternatively, chips produced by allowing preliminarily biotinylated antigen peptides to interact with and immobilize onto a Series S Sensor Chip SA (certified) (GE Healthcare) were used. Antibodies of interest were captured onto an antigen peptide-immobilized chip, and allowed to interact to each FcγR diluted with running buffer. To regenerate and repeatedly use the chip, the antibodies captured on the chip were washed off by reacting 10 mM glycine-HCl, pH 1.5.
The FcγR-binding activity of each antibody was assessed primarily using as an indicator the FcγR-binding activity and dissociation constant for FcγR.

Row | Ho/Con_2b | Binder
1 | 132 % of control | GpH7-B3 variant K326_20W/GpL16-k0 (antibody, human IgG1, kappa, also called Ho Ab K326_20W) heavy: not shown light: DIVMTQSPLSLPVTPGEPASISCQASESLVHSNRNTYLHWYLQKPGQSPQLLIYKVSNRFSGVPDRFSGSGSGTDFTLKISRVEAEDVGVYYCSQNTHVPPTFGQGTKVEIERTVAAPSVFIFPPSDEQLKSGTASVVCLLNNFYPREAKVQWKVDNALQSGNSQESVTEQDSKDSTYSLSSTLTLSKADYEKHKVYACEVTHQGLSSPVTKSFNRGEC
2 | 68.5 % of control | GpH7-B3 variant L234_09D/GpL16-k0 (antibody, human IgG1, kappa, also called Ho Ab L234_09D) heavy: not shown light: DIVMTQSPLSLPVTPGEPASISCQASESLVHSNRNTYLHWYLQKPGQSPQLLIYKVSNRFSGVPDRFSGSGSGTDFTLKISRVEAEDVGVYYCSQNTHVPPTFGQGTKVEIERTVAAPSVFIFPPSDEQLKSGTASVVCLLNNFYPREAKVQWKVDNALQSGNSQESVTEQDSKDSTYSLSSTLTLSKADYEKHKVYACEVTHQGLSSPVTKSFNRGEC
3 | 54.9 % of control | GpH7-B3 variant L234_10E/GpL16-k0 (antibody, human IgG1, kappa, also called Ho Ab L234_10E) heavy: not shown light: DIVMTQSPLSLPVTPGEPASISCQASESLVHSNRNTYLHWYLQKPGQSPQLLIYKVSNRFSGVPDRFSGSGSGTDFTLKISRVEAEDVGVYYCSQNTHVPPTFGQGTKVEIERTVAAPSVFIFPPSDEQLKSGTASVVCLLNNFYPREAKVQWKVDNALQSGNSQESVTEQDSKDSTYSLSSTLTLSKADYEKHKVYACEVTHQGLSSPVTKSFNRGEC
4 | 80.6 % of control | GpH7-B3 variant L234_20W/GpL16-k0 (antibody, human IgG1, kappa, also called Ho Ab L234_20W) heavy: not shown light: DIVMTQSPLSLPVTPGEPASISCQASESLVHSNRNTYLHWYLQKPGQSPQLLIYKVSNRFSGVPDRFSGSGSGTDFTLKISRVEAEDVGVYYCSQNTHVPPTFGQGTKVEIERTVAAPSVFIFPPSDEQLKSGTASVVCLLNNFYPREAKVQWKVDNALQSGNSQESVTEQDSKDSTYSLSSTLTLSKADYEKHKVYACEVTHQGLSSPVTKSFNRGEC
5 | 111 % of control | GpH7-B3 variant L235_04F/GpL16-k0 (antibody, human IgG1, kappa, also called Ho Ab L235_04F) heavy: not shown light: DIVMTQSPLSLPVTPGEPASISCQASESLVHSNRNTYLHWYLQKPGQSPQLLIYKVSNRFSGVPDRFSGSGSGTDFTLKISRVEAEDVGVYYCSQNTHVPPTFGQGTKVEIERTVAAPSVFIFPPSDEQLKSGTASVVCLLNNFYPREAKVQWKVDNALQSGNSQESVTEQDSKDSTYSLSSTLTLSKADYEKHKVYACEVTHQGLSSPVTKSFNRGEC
6 | 78.7 % of control | GpH7-B3 variant L235_09D/GpL16-k0 (antibody, human IgG1, kappa, also called Ho Ab L235_09D) heavy: not shown light: DIVMTQSPLSLPVTPGEPASISCQASESLVHSNRNTYLHWYLQKPGQSPQLLIYKVSNRFSGVPDRFSGSGSGTDFTLKISRVEAEDVGVYYCSQNTHVPPTFGQGTKVEIERTVAAPSVFIFPPSDEQLKSGTASVVCLLNNFYPREAKVQWKVDNALQSGNSQESVTEQDSKDSTYSLSSTLTLSKADYEKHKVYACEVTHQGLSSPVTKSFNRGEC
7 | 127 % of control | GpH7-B3 variant L235_15Y/GpL16-k0 (antibody, human IgG1, kappa, also called Ho Ab L235_15Y) heavy: not shown light: DIVMTQSPLSLPVTPGEPASISCQASESLVHSNRNTYLHWYLQKPGQSPQLLIYKVSNRFSGVPDRFSGSGSGTDFTLKISRVEAEDVGVYYCSQNTHVPPTFGQGTKVEIERTVAAPSVFIFPPSDEQLKSGTASVVCLLNNFYPREAKVQWKVDNALQSGNSQESVTEQDSKDSTYSLSSTLTLSKADYEKHKVYACEVTHQGLSSPVTKSFNRGEC
8 | 116 % of control | GpH7-B3 variant L235_20W/GpL16-k0 (antibody, human IgG1, kappa, also called Ho Ab L235_20W) heavy: not shown light: DIVMTQSPLSLPVTPGEPASISCQASESLVHSNRNTYLHWYLQKPGQSPQLLIYKVSNRFSGVPDRFSGSGSGTDFTLKISRVEAEDVGVYYCSQNTHVPPTFGQGTKVEIERTVAAPSVFIFPPSDEQLKSGTASVVCLLNNFYPREAKVQWKVDNALQSGNSQESVTEQDSKDSTYSLSSTLTLSKADYEKHKVYACEVTHQGLSSPVTKSFNRGEC
9 | 117 % of control | GpH7-B3 variant L328_02A/GpL16-k0 (antibody, human IgG1, kappa, also called Ho Ab L328_02A) heavy: not shown light: DIVMTQSPLSLPVTPGEPASISCQASESLVHSNRNTYLHWYLQKPGQSPQLLIYKVSNRFSGVPDRFSGSGSGTDFTLKISRVEAEDVGVYYCSQNTHVPPTFGQGTKVEIERTVAAPSVFIFPPSDEQLKSGTASVVCLLNNFYPREAKVQWKVDNALQSGNSQESVTEQDSKDSTYSLSSTLTLSKADYEKHKVYACEVTHQGLSSPVTKSFNRGEC
10 | 159 % of control | GpH7-B3 variant L328_09D/GpL16-k0 (antibody, human IgG1, kappa, also called Ho Ab L328_09D) heavy: not shown light: DIVMTQSPLSLPVTPGEPASISCQASESLVHSNRNTYLHWYLQKPGQSPQLLIYKVSNRFSGVPDRFSGSGSGTDFTLKISRVEAEDVGVYYCSQNTHVPPTFGQGTKVEIERTVAAPSVFIFPPSDEQLKSGTASVVCLLNNFYPREAKVQWKVDNALQSGNSQESVTEQDSKDSTYSLSSTLTLSKADYEKHKVYACEVTHQGLSSPVTKSFNRGEC
11 | 146 % of control | GpH7-B3 variant L328_10E/GpL16-k0 (antibody, human IgG1, kappa, also called Ho Ab L328_10E) heavy: not shown light: DIVMTQSPLSLPVTPGEPASISCQASESLVHSNRNTYLHWYLQKPGQSPQLLIYKVSNRFSGVPDRFSGSGSGTDFTLKISRVEAEDVGVYYCSQNTHVPPTFGQGTKVEIERTVAAPSVFIFPPSDEQLKSGTASVVCLLNNFYPREAKVQWKVDNALQSGNSQESVTEQDSKDSTYSLSSTLTLSKADYEKHKVYACEVTHQGLSSPVTKSFNRGEC
12 | 147 % of control | GpH7-B3 variant L328_13S/GpL16-k0 (antibody, human IgG1, kappa, also called Ho Ab L328_13S) heavy: not shown light: DIVMTQSPLSLPVTPGEPASISCQASESLVHSNRNTYLHWYLQKPGQSPQLLIYKVSNRFSGVPDRFSGSGSGTDFTLKISRVEAEDVGVYYCSQNTHVPPTFGQGTKVEIERTVAAPSVFIFPPSDEQLKSGTASVVCLLNNFYPREAKVQWKVDNALQSGNSQESVTEQDSKDSTYSLSSTLTLSKADYEKHKVYACEVTHQGLSSPVTKSFNRGEC
13 | 20.2 % of control | GpH7-B3 variant N325_01G/GpL16-k0 (antibody, human IgG1, kappa, also called Ho Ab N325_01G) heavy: not shown light: DIVMTQSPLSLPVTPGEPASISCQASESLVHSNRNTYLHWYLQKPGQSPQLLIYKVSNRFSGVPDRFSGSGSGTDFTLKISRVEAEDVGVYYCSQNTHVPPTFGQGTKVEIERTVAAPSVFIFPPSDEQLKSGTASVVCLLNNFYPREAKVQWKVDNALQSGNSQESVTEQDSKDSTYSLSSTLTLSKADYEKHKVYACEVTHQGLSSPVTKSFNRGEC
14 | 31.8 % of control | GpH7-B3 variant N325_03V/GpL16-k0 (antibody, human IgG1, kappa, also called Ho Ab N325_03V) heavy: not shown light: DIVMTQSPLSLPVTPGEPASISCQASESLVHSNRNTYLHWYLQKPGQSPQLLIYKVSNRFSGVPDRFSGSGSGTDFTLKISRVEAEDVGVYYCSQNTHVPPTFGQGTKVEIERTVAAPSVFIFPPSDEQLKSGTASVVCLLNNFYPREAKVQWKVDNALQSGNSQESVTEQDSKDSTYSLSSTLTLSKADYEKHKVYACEVTHQGLSSPVTKSFNRGEC
15 | 65.7 % of control | GpH7-B3 variant N325_04F/GpL16-k0 (antibody, human IgG1, kappa, also called Ho Ab N325_04F) heavy: not shown light: DIVMTQSPLSLPVTPGEPASISCQASESLVHSNRNTYLHWYLQKPGQSPQLLIYKVSNRFSGVPDRFSGSGSGTDFTLKISRVEAEDVGVYYCSQNTHVPPTFGQGTKVEIERTVAAPSVFIFPPSDEQLKSGTASVVCLLNNFYPREAKVQWKVDNALQSGNSQESVTEQDSKDSTYSLSSTLTLSKADYEKHKVYACEVTHQGLSSPVTKSFNRGEC
16 | 159 % of control | GpH7-B3 variant N325_06M/GpL16-k0 (antibody, human IgG1, kappa, also called Ho Ab N325_06M) heavy: not shown light: DIVMTQSPLSLPVTPGEPASISCQASESLVHSNRNTYLHWYLQKPGQSPQLLIYKVSNRFSGVPDRFSGSGSGTDFTLKISRVEAEDVGVYYCSQNTHVPPTFGQGTKVEIERTVAAPSVFIFPPSDEQLKSGTASVVCLLNNFYPREAKVQWKVDNALQSGNSQESVTEQDSKDSTYSLSSTLTLSKADYEKHKVYACEVTHQGLSSPVTKSFNRGEC
17 | 88.2 % of control | GpH7-B3 variant N325_07I/GpL16-k0 (antibody, human IgG1, kappa, also called Ho Ab N325_07I) heavy: not shown light: DIVMTQSPLSLPVTPGEPASISCQASESLVHSNRNTYLHWYLQKPGQSPQLLIYKVSNRFSGVPDRFSGSGSGTDFTLKISRVEAEDVGVYYCSQNTHVPPTFGQGTKVEIERTVAAPSVFIFPPSDEQLKSGTASVVCLLNNFYPREAKVQWKVDNALQSGNSQESVTEQDSKDSTYSLSSTLTLSKADYEKHKVYACEVTHQGLSSPVTKSFNRGEC
18 | 106 % of control | GpH7-B3 variant N325_08L/GpL16-k0 (antibody, human IgG1, kappa, also called Ho Ab N325_08L) heavy: not shown light: DIVMTQSPLSLPVTPGEPASISCQASESLVHSNRNTYLHWYLQKPGQSPQLLIYKVSNRFSGVPDRFSGSGSGTDFTLKISRVEAEDVGVYYCSQNTHVPPTFGQGTKVEIERTVAAPSVFIFPPSDEQLKSGTASVVCLLNNFYPREAKVQWKVDNALQSGNSQESVTEQDSKDSTYSLSSTLTLSKADYEKHKVYACEVTHQGLSSPVTKSFNRGEC
19 | 77 % of control | GpH7-B3 variant N325_09D/GpL16-k0 (antibody, human IgG1, kappa, also called Ho Ab N325_09D) heavy: not shown light: DIVMTQSPLSLPVTPGEPASISCQASESLVHSNRNTYLHWYLQKPGQSPQLLIYKVSNRFSGVPDRFSGSGSGTDFTLKISRVEAEDVGVYYCSQNTHVPPTFGQGTKVEIERTVAAPSVFIFPPSDEQLKSGTASVVCLLNNFYPREAKVQWKVDNALQSGNSQESVTEQDSKDSTYSLSSTLTLSKADYEKHKVYACEVTHQGLSSPVTKSFNRGEC
20 | 159 % of control | GpH7-B3 variant N325_13S/GpL16-k0 (antibody, human IgG1, kappa, also called Ho Ab N325_13S) heavy: not shown light: DIVMTQSPLSLPVTPGEPASISCQASESLVHSNRNTYLHWYLQKPGQSPQLLIYKVSNRFSGVPDRFSGSGSGTDFTLKISRVEAEDVGVYYCSQNTHVPPTFGQGTKVEIERTVAAPSVFIFPPSDEQLKSGTASVVCLLNNFYPREAKVQWKVDNALQSGNSQESVTEQDSKDSTYSLSSTLTLSKADYEKHKVYACEVTHQGLSSPVTKSFNRGEC
21 | 44 % of control | GpH7-B3 variant N325_20W/GpL16-k0 (antibody, human IgG1, kappa, also called Ho Ab N325_20W) heavy: not shown light: DIVMTQSPLSLPVTPGEPASISCQASESLVHSNRNTYLHWYLQKPGQSPQLLIYKVSNRFSGVPDRFSGSGSGTDFTLKISRVEAEDVGVYYCSQNTHVPPTFGQGTKVEIERTVAAPSVFIFPPSDEQLKSGTASVVCLLNNFYPREAKVQWKVDNALQSGNSQESVTEQDSKDSTYSLSSTLTLSKADYEKHKVYACEVTHQGLSSPVTKSFNRGEC
